The values below are quoted from earlier work in article PMC5973875.

pKd: −log10 of the molar value. Like-named read-outs stand apart in the source and are kept apart here.

For data set [1], the target named is Protein S (Homo sapiens) (UniProt P07225).
Data set [2] shares this target. This is another data set of the same source.

Sequence of UniProt P07225 (P07225 42-676): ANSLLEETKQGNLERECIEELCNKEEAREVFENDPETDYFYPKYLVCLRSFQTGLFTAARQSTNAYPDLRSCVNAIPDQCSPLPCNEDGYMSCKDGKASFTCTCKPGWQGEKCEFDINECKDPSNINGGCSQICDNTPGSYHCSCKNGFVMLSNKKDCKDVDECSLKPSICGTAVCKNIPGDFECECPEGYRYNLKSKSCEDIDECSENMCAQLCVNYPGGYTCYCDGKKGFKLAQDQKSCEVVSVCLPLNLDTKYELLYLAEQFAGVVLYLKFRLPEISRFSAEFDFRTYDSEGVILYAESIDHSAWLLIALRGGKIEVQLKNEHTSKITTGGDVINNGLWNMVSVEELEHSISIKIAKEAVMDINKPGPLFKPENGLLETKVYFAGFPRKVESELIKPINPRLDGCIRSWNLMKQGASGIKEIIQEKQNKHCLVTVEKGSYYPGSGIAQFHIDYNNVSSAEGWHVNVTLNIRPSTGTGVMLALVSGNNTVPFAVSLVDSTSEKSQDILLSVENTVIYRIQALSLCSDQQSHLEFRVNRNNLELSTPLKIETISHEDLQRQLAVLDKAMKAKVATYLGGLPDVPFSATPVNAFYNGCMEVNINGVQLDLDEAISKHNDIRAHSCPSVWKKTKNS

For C4BP (from UniProt P04003), in the data set with Protein S (Homo sapiens) [1], the pKd (in general, −log10 of the Kd, conventionally taken in molar units) is 10.00. On to “Factor Va heavy chain (from UniProt P12259)”, for which the pKd in the data set with Protein S (Homo sapiens) [2] is 7.48.
